Assay [1] has as its target amyloid β (Aβ) plaques (UniProt P05067). Description: in vivo labelling of Aβ plaques after i.v. injection into APPswe/PS1ΔE9 AD mice, injected dose 8X (0.55 µmol/Kg).
Assay [2] has the same target. The assay can be described thus: in vivo labelling of Aβ plaques after i.v. injection into APPswe/PS1ΔE9 AD mice, injected dose 2X (0.137 µmol/Kg).
The target is the same in assay [3]. The assay can be described thus: in vivo labelling of Aβ plaques after i.v. injection into APPswe/PS1ΔE9 AD mice, injected dose 4X (0.274 µmol/Kg).
Assay [4] shares this target. Description: in vivo labelling of Aβ plaques after i.v. injection into APPswe/PS1ΔE9 AD mice, injected dose 6X (0.411 µmol/Kg).
Assay [5] shares this target. The assay can be described thus: in vivo labelling of Aβ plaques after i.v. injection of rhodamine-labelled conjugate into APPswe/PS1ΔE9 AD mice, dose 8X; fluorescence microscopy of brain sections.

Square brackets hold non-standard residues; d marks the D form. Ends that are not written are not given here.

amyloid β (Aβ) plaques, sequence (P05067 672-713): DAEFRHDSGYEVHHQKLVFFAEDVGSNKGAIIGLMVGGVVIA

B1: PMLA/LLL/D3/rhodamine (peptide)
peptide 1: [dR][dP][dR][dT][dR][dL][dH][dT][dH][dR][dN][dR]C
peptide 2: Leu-Leu-Leu
modifications: not fully specified (some residues, N-terminus); also: PMLA scaffold carrying LLL (amide-linked to pendant carboxylates), D3 peptide and rhodamine, D3 Cys thioether to maleimide-PEG3400 on PMLA
Consider B1, for which the Percentage of total plaques labeled by the reagents in assay [1] is 21.1%; in assay [2], 0%; in assay [3] it was 0%; in assay [4], 0%; in assay [5], 21.1%.

The record behind these values is patent publication US20200206304A1, “METHODS AND COMPOSITIONS FOR EFFICIENT DELIVERY THROUGH MULTIPLE BIO BARRIERS” (Cedars-Sinai Medical Center, priority 2017, published 2020).
